B1: bispecific antibody CTLA4-E-HN (bispecific antibody)
heavy: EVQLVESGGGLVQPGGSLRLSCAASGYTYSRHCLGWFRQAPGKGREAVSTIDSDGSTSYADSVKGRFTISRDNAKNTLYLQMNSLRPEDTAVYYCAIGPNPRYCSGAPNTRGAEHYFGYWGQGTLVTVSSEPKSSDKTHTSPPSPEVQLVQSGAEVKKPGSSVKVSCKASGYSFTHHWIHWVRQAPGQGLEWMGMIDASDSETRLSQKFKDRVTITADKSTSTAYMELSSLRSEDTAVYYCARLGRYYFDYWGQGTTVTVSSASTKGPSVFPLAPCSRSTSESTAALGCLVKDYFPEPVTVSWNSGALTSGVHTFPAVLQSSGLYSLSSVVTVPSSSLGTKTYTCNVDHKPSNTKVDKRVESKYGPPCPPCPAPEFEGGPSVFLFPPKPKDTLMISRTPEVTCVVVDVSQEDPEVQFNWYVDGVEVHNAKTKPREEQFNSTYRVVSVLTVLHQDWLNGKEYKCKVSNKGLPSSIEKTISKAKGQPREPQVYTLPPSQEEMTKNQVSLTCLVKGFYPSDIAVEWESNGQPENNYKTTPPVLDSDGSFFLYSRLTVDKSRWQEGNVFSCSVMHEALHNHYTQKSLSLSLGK
light: EIVLTQSPATLSLSPGERATLSCRASENVGTYISWYQQKPGQAPRLLIYGASNRYTGIPARFSGSGSGTDFTLTISSLEPEDFAVYYCGESYGHLYTFGGGTKVEIKRTVAAPSVFIFPPSDEQLKSGTASVVCLLNNFYPREAKVQWKVDNALQSGNSQESVTEQDSKDSTYSLSSTLTLSKADYEKHKVYACEVTHQGLSSPVTKSFNRGEC
B2: bispecific antibody CTLA4-G15-HN (bispecific antibody)
heavy: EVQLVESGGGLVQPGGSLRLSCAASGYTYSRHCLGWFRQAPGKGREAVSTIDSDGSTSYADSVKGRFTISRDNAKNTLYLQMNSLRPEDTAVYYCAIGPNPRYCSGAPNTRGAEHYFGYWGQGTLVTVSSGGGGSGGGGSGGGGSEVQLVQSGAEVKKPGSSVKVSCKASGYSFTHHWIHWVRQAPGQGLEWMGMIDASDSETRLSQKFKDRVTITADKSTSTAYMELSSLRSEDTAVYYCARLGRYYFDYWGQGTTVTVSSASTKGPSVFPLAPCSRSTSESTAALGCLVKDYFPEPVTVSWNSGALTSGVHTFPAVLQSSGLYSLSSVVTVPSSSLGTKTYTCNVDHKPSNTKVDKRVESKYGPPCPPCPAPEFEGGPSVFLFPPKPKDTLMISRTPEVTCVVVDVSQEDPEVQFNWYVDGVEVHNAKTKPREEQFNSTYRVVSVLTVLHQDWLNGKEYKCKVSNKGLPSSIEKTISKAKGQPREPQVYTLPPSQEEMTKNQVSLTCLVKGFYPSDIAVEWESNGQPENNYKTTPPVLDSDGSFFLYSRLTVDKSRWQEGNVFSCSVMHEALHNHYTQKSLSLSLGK
light: B1 light
B3: bispecific antibody CTLA4-E-HC (bispecific antibody)
heavy: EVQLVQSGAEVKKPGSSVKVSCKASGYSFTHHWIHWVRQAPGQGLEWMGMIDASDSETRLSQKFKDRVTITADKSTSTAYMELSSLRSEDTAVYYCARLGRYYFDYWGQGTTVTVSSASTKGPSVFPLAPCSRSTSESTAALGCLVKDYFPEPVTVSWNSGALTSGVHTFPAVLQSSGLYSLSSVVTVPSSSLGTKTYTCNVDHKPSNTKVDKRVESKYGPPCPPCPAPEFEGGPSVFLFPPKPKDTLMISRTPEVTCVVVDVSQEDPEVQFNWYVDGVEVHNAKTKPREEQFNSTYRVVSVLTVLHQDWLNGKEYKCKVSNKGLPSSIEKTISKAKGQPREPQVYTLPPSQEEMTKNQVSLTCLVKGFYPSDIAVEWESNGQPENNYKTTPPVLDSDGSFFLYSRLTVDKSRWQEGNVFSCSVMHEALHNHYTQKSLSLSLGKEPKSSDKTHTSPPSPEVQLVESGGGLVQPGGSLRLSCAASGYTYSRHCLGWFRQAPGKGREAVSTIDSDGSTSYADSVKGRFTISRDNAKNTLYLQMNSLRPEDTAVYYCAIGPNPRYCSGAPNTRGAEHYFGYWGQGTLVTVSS
light: B1 light
B4: bispecific antibody CTLA4-G15-HC (bispecific antibody)
heavy: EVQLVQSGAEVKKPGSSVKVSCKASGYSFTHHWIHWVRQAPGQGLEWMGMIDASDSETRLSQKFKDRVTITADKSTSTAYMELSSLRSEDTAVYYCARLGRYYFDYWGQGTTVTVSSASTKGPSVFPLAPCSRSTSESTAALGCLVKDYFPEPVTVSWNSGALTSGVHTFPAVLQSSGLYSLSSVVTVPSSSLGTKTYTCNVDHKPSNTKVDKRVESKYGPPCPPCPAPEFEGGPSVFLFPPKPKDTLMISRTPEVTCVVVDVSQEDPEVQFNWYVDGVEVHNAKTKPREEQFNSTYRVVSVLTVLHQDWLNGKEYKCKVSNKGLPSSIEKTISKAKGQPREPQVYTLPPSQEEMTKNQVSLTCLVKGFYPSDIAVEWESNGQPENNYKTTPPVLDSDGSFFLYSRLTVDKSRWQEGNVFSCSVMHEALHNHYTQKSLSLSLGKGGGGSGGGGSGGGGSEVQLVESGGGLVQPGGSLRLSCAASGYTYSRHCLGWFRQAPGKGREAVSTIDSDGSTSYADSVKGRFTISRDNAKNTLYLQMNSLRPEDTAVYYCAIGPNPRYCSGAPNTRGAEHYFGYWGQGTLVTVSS
light: B1 light
B5: anti-CD47 monoclonal antibody (mAb) (antibody, V domains shown)
VH: EVQLVQSGAEVKKPGSSVKVSCKASGYSFTHHWIHWVRQAPGQGLEWMGMIDASDSETRLSQKFKDRVTITADKSTSTAYMELSSLRSEDTAVYYCARLGRYYFDYWGQGTTVTVSS
VL: EIVLTQSPATLSLSPGERATLSCRASENVGTYISWYQQKPGQAPRLLIYGASNRYTGIPARFSGSGSGTDFTLTISSLEPEDFAVYYCGESYGHLYTFGGGTKVEIKR
B6: bispecific antibody CTLA4-G9-LN (bispecific antibody)
light: EVQLVESGGGLVQPGGSLRLSCAASGYTYSRHCLGWFRQAPGKGREAVSTIDSDGSTSYADSVKGRFTISRDNAKNTLYLQMNSLRPEDTAVYYCAIGPNPRYCSGAPNTRGAEHYFGYWGQGTLVTVSSGGGGSGGGSEIVLTQSPATLSLSPGERATLSCRASENVGTYISWYQQKPGQAPRLLIYGASNRYTGIPARFSGSGSGTDFTLTISSLEPEDFAVYYCGESYGHLYTFGGGTKVEIKRTVAAPSVFIFPPSDEQLKSGTASVVCLLNNFYPREAKVQWKVDNALQSGNSQESVTEQDSKDSTYSLSSTLTLSKADYEKHKVYACEVTHQGLSSPVTKSFNRGEC
heavy: not shown

Target: human CTLA-4 (human, UniProt P16410 36-223)
Sequence (P16410 36-223): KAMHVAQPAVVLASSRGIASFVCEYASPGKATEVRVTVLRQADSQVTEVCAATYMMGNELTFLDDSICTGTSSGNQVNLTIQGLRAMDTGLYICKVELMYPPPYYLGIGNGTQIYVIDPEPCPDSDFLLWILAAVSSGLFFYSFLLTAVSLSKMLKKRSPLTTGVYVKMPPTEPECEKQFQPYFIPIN
Experiment: FACS binding CHO-K1 cells expressing human CTLA-4

Row | EC50 [nM] | Binder
1 | 3.61 | B1
2 | 2.93 | B2
3 | 7.05 | B3
4 | 6.22 | B4
5 | ~3.2 | B5
6 | 3.59 | B6

Target: CD47 (UniProt Q08722 19-323)
Sequence (Q08722 19-323): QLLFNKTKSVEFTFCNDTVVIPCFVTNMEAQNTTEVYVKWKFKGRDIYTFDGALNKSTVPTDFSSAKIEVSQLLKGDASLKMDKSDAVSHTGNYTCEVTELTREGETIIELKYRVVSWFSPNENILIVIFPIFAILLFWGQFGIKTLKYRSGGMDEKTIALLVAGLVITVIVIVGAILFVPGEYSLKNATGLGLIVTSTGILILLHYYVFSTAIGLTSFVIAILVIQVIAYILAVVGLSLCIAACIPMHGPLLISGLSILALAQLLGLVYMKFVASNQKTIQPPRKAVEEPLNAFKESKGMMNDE
Experiment: FACS

Row | EC50 [nM] | Binder
7 | 2.3 | B1
8 | 1.81 | B2
9 | 1.57 | B3
10 | 1.63 | B4
11 | 0.905 | B5

Reference: patent US20220332848A1 (published 2022)
